From patent publication US11357847B2, “Modified HSV gD protein and vaccine containing same” (KM Biologics Co., Ltd., priority 2017, dated 2022)
Changes are numbered by the printed parent chain.

B1: gD1-275 (protein)
chain: KYALADPSLKMADPNRFRGKNLPVLDQLTDPPGVKRVYHIQPSLEDPFQPPSIPITVYYAVLERACRSVLLHAPSEAPQIVRGASDEARKHTYNLTIAWYRMGDNCAIPITVMEYTECPYNKSLGVCPIRTQPRWSYYDSFSAVSEDNLGFLMHAPAFETAGTYLRLVKINDWTEITQFILEHRARASCKYALPLRIPPAACLTSKAYQQGVTVDSIGMLPRFIPENQRTVALYSLKIAGWHGPKPPYTSTLLPPELSDTTNATQPELVPEDPED
B2: gD1-275v3: gD1-275 with glycochain at P50 (SC-F) (protein)
chain: KYALADPSLKMADPNRFRGKNLPVLDQLTDPPGVKRVYHIQPSLEDPFQNASIPITVYYAVLERACRSVLLHAPSEAPQIVRGASDEARKHTYNLTIAWYRMGDNCAIPITVMEYTECPYNKSLGVCPIRTQPRWSYYDSFSAVSEDNLGFLMHAPAFETAGTYLRLVKINDWTEITQFILEHRARASCKYALPLRIPPAACLTSKAYQQGVTVDSIGMLPRFIPENQRTVALYSLKIAGWHGPKPPYTSTLLPPELSDTTNATQPELVPEDPEDHHHHHH
B3: gD1-275v5: gD1-275 with glycochains at R186 (SC-A) and P50 (SC-F) (protein)
chain: B2 chain with R186N
B4: gD1-275v3-55: gD1-275 with glycochain at SC-F, linked to T cell epitope peptide DP5 (protein)
chain: KYALADPSLKMADPNRFRGKNLPVLDQLTDPPGVKRVYHIQPSLEDPFQNASIPITVYYAVLERACRSVLLHAPSEAPQIVRGASDEARKHTYNLTIAWYRMGDNCAIPITVMEYTECPYNKSLGVCPIRTQPRWSYYDSFSAVSEDNLGFLMHAPAFETAGTYLRLVKINDWTEITQFILEHRARASCKYALPLRIPPAACLTSKAYQQGVTVDSIGMLPRFIPENQRTVALYSLKIAGWHGPKPPYTSTLLPPELSDTTNATQPELVPEDPEDGPGPGIAFWVRRRAQMAPKPLRIAFWVRRRAQMAPKPLRHHHHHH
modifications: left off: small tags and cut ends
B5: gD1-275v5-55: gD1-275 with glycochains at SC-A, SC-F, linked to T cell epitope peptide DP5 (protein)
chain: B4 chain with R186N
modifications: left off: small tags and cut ends

How the values were obtained:
[1] = test system: various anti-gD2 antibodies; assay: Reactivity of gD variants with anti-gD2 antibodies (competitive ELISA); assay type: binding, human; details: for Reactivity with anti-gD2 antibody 1 / Reactivity with anti-gD2 antibody 5 / Reactivity with anti-gD2 antibody 13 / Reactivity with anti-gD2 antibody 72 / Reactivity with anti-gD2 antibody 75 / Reactivity with anti-gD2 antibody 78 / Reactivity with anti-gD2 antibody 82: immobilized gD variant
From the text: Each anti-gD2 monoclonal antibody and each gD variant were expressed using an Expi293 expression system.

[2] = Properties of produced gD variants (aggregates); assay type: physicochemical; details: expressed and purified variant
From the text: Four gD1-275-based variants were produced. Since these were FR3-deficient variants, V231W mutations affecting FR3 were not investigated. […] Meanwhile, eight gD1-315-based variants were produced, and none of the variants were less than the original gD1-315 in both properties and expression level.

HSV-2 MS strain = assay: Mouse infection-prevention test of modified gD (genital herpes infection model); assay type: in vivo, BALB/c mice; design: key to Determination (vs gD1-315) / Determination# (vs gD1-315): ++: minimum effective dose based on the Significant difference test in three-fold common ratio relative to gD1-315(WT) of two or more doses stronger; +: those of one dose stronger; ±: those of an equivalent value
Method: Immunogenicity test of the modified gD antigen was performed using the wild-type gD antigen gD1-315 (WT) as a positive control and saline as a negative control. A predetermined amount of antigen was dissolved in saline for injection (saline) with MPLA (10 μg/mouse) and CpG (1 μg/mouse) and immunized to mice at a volume of 200 μL/mouse. BALB/c mice (5 weeks old, female) were used for the study and immunized subcutaneously in back at 2-week intervals for a total of 3 times (N=4 cases per group). Two weeks after the final immunization (third dose), blood was collected and serum was prepared for each individual. The prepared serum was serially diluted and assessed for neutralizing antibody-inducing activity against HSV-2 (50% plaque number-reducing activity).
An infection-prevention test in the preventive administration of modified gD antigen was performed using a mouse genital herpes infection model. Similar to the mouse immunogenicity test described above, mice were immunized with the number of N=10 cases per group. Depo-Provera was inoculated subcutaneously at 2 mg/mouse 6 days prior to viral inoculation to improve the multiplicity of infection upon viral inoculation 2 weeks after final immunization (third dose). 5×10^5 PFU/20 μL HSV-2 MS strain was inoculated transvaginally under anesthesia and observed for 21 days. Infection prevention ability was evaluated using survival time (survival rate) as index.
The infection model of the mouse genital herpes infection model was used to evaluate infection prevention ability of various modified gD in preventive administration. The number of animal cases in each group was set to n=10, and wild-type gD (gD1-315) was used as a positive control and saline was used as a negative control. The experiments were performed a total of four times (experiments 1-4) and four doses of 0.1 μg/mouse/time, 0.03 μg/mouse/time, 0.01 μg/mouse/time and 0.003 μg/mouse/time were set for all of the positive control, negative control, and subject modified gD antigen. Depo-Provera was inoculated subcutaneously at 2 mg/mouse 6 days prior to viral inoculation to improve the multiplicity of infection upon viral inoculation 2 weeks after final immunization (third dose). 5×10^5 PFU/20 HSV-2 MS strain was inoculated transvaginally under anesthesia and observed for 21 days. Infection prevention ability was evaluated using survival time (survival rate) as index. Mean values of those were plotted in the graph. A Significant difference test for the negative control group was performed by the Kaplan-Meier method, and those with a minimum effective dose based on the Significant difference test in three-fold common ratio relative to wild type gD of two or more doses stronger were determined to be “++”, those of one dose stronger were determined to be “+”, and those of an equivalent value were determined to be “±”.

[3] = Experiment 4, 0.003 μg/head/time
[4] = Experiment 4, 0.01 μg/head/time
[5] = Experiment 4, 0.03 μg/head/time
[6] = Experiment 4, minimum effective dose relative to gD1-315(WT)
[7] = Experiment 1, 0.003 μg/head/time
[8] = Experiment 1, 0.01 μg/head/time
[9] = Experiment 1, 0.03 μg/head/time

Molecule | Reactivity with anti-gD2 antibody 1 [1] | Reactivity with anti-gD2 antibody 5 [1] | Reactivity with anti-gD2 antibody 13 [1] | Reactivity with anti-gD2 antibody 72 [1] | Reactivity with anti-gD2 antibody 75 [1] | Reactivity with anti-gD2 antibody 78 [1] | Reactivity with anti-gD2 antibody 82 [1] | Properties of the variant (aggregates) [2] | Mean survival time (HSV-2 MS strain; [3]) [days] | Significant difference test (vs saline) (HSV-2 MS strain; [3]) | Mean survival time (HSV-2 MS strain; [4]) [days] | Significant difference test (vs saline) (HSV-2 MS strain; [4]) | Mean survival time (HSV-2 MS strain; [5]) [days] | Significant difference test (vs saline) (HSV-2 MS strain; [5]) | Mean survival time (HSV-2 MS strain; Experiment 4, 0.1 μg/head/time) [days] | Significant difference test (vs saline) (HSV-2 MS strain; Experiment 4, 0.1 μg/head/time) | Determination# (vs gD1-315) (HSV-2 MS strain; [6]) | other results
B1 | − ((−): less than 30%) | + ((+): 70% or more) | + ((+): 70% or more) | + ((+): 70% or more) | + ((+): 70% or more) | + ((+): 70% or more) | + ((+): 70% or more) | Aggregation |  |  |  |  |  |  |  |  |  | 
B2 | − ((−): less than 30%) | − ((−): less than 30%) | − ((−): less than 30%) | − ((−): less than 30%) | − ((−): less than 30%) | − ((−): less than 30%) | + ((+): 70% or more) | no change in properties |  |  |  |  |  |  |  |  |  | 
B3 | − ((−): less than 30%) | − ((−): less than 30%) | − ((−): less than 30%) | + ((+): 70% or more) | − ((−): less than 30%) | − ((−): less than 30%) | + ((+): 70% or more) | no change in properties |  |  |  |  |  |  |  |  |  | Relative reactivity with antibody No. 82 (gD1-315 wild-type set to 1) ([1]; FIG. 13): substantially similar reactivity
B4 | − ((−): less than 30%) | − ((−): less than 30%) | − ((−): less than 30%) | − ((−): less than 30%) | − ((−): less than 30%) | − ((−): less than 30%) | + ((+): 70% or more) | presence of aggregates was confirmed | 7 | N.S. | 7.5 | N.S. | >21 | ** (** 0.001 = < p < 0.01) | >21 | ** (** 0.001 = < p < 0.01) | + | 
B5 | − ((−): less than 30%) | − ((−): less than 30%) | − ((−): less than 30%) | − ((−): less than 30%) | − ((−): less than 30%) | − ((−): less than 30%) | + ((+): 70% or more) | well properties | 8 | N.S. | 15.5 | N.S. | >21 | ** (** 0.001 = < p < 0.01) | >21 | *** (*** p < 0.001) | + | Mean survival time (HSV-2 MS strain; [7]): 13 days; Significant difference test (vs saline) (HSV-2 MS strain; [7]): *** (*** p < 0.001); Mean survival time (HSV-2 MS strain; [8]): 11 days; Significant difference test (vs saline) (HSV-2 MS strain; [8]): *** (*** p < 0.001); Mean survival time (HSV-2 MS strain; [9]): >21 days; Significant difference test (vs saline) (HSV-2 MS strain; [9]): *** (*** p < 0.001); Mean survival time (HSV-2 MS strain; Experiment 1, 0.1 μg/head/time): >21 days; Significant difference test (vs saline) (HSV-2 MS strain; Experiment 1, 0.1 μg/head/time): *** (*** p < 0.001); Determination (vs gD1-315) (HSV-2 MS strain; Experiment 1, minimum effective dose relative to gD1-315(WT)): ++
